Read-outs that look alike come from different tables or passages of the source.

For test [1], the target named is NaChBac (Bacillus halodurans). Kind of test: cryo-EM structure.
Test [2] concerns the target NaChBac (Bacillus halodurans). Kind of test: cryo-EM structure. The source holds these as a separate data set.

As to NaChBac (natural protein), the stoichiometry N in test [1] and in test [2] was 4 each time.

The record behind these values is doi:10.1101/2020.04.16.045674.
